A short description of series [1]: Robotic quantitative screen of E. coli lysates: signal stability (S), sustained enzymatic turnover. Conditions: inverse ratio with reference; Control is Luc85-4F12 at 65° C. (=1). The series is classed as biochemical. The method, then:
One daughter plate is placed in the luminometer and the 1X assay method is used. After the assay, the plate is placed in the ambient incubator, and the second daughter plate is placed in the luminometer. For the second plate, the 0.02X assay method is used. This plate is discarded, and the first plate is returned from the incubator to the luminometer. The repeat assay method is used (i.e., no reagent is injected). Afterwards, the plate is again returned to the ambient incubator.
The plate in the ambient incubator is returned to the luminometer and the repeat assay method is again used. The plate is returned afterwards to the ambient incubator.
The plate in the ambient incubator is returned to the luminometer and the repeat assay method is again used. The plate is discarded afterwards.
The following criteria were used for screening purposes. The temperature chosen for the enzyme stability parameter was such that the parent enzyme would decay 100 to 1000 fold over 10 hours (see Table 1). Criteria 1 is achieved manually; data for criteria 2-6 is generated by robotic analysis. For all criteria, the maximum value as described is selected. • 1. In vivo screen. The brightest clones are selected at a given temperature. • 2. Expression/specific activity. The value for normalized luminescence is calculated as the ratio of luminescence to optical density. The value is reported as the ratio with the reference value. • 3. Enzyme stability. Measurements of normalized luminescence of the incubated samples (3 taken over about 15 hours) are fitted to In(L)=In(L0)−(t/τ), where L is normalized luminescence and t is time. τ is a measure of the enzyme stability. The value is reported as the ratio with the reference value, and the correlation coefficients are calculated. • 4. Substrate binding. Measurements of normalized luminescence with 1X and 0.02X are taken at the initial reading set, and 1X and 0.06X are taken at the 5 hour set. The ratio of the 0.02X:1X and 0.06X:1X gives the relative luminescence at 0.02X and 0.06X concentrations. These values, along with the relative luminescence at 1X (i.e., 1), are fitted to a Lineweaver-Burk plot to yield the Km:app,total for the substrates ATP, luciferin, and CoA. The values are reported as the inverse ratio with the reference value, and the correlation coefficients are calculated. • 5. Signal stability. The luminescence of the initial IX luminescent reactions are re-measured 3 additional times over about 15 hours. These values are fitted to In(L)=In(L0)−(t/τ) and the integral over t (15 hours) is calculated. Signal stability is then calculated as S=(1−int(L)/L0t)^2. The values are reported as the inverse ratio with the reference value, and the correlation coefficients are calculated. • 6. Composite fitness. The values of criteria 2 through 5 are combined into a single composite value of fitness (or commercial utility). This value is based on a judgment of the relative importance of the other criteria. This judgment is given below:
Calculate signal stability (S): For each sample, use linear regression to fit In(L)=In(L0)[…] using the four luminescence measurements of the initial microplate with 1X substrate concentrations (Plates 1, 3, 4, and 7). Also calculate the regression coefficient. From the calculated values of T and L0, calculate the integral of luminescence by int(L)=τL0(1−exp(−tf/τ)), where tf is the average time of the last measurement (e.g., 15 hours). The signal stability is calculated as S=(1−int(L)/Litf)^2, where Li is the initial measurement of normalized luminescence with 1× substrate concentration (Plate 1).
[Note: To correct for evaporation, an equation S=(1+K−int(L)/Litf)^2, may be used where 1/K=2(relative change of liquid volume at tf).]
Calculate the reference-normalized values: For the criteria parameter of each sample, a reference-normalized value is determined by calculating the ratio or inverse ratio with the respective reference value. […]

The nature of series [2]: Michaelis-Menten constant for luciferin of purified mutants. The format is biochemical. The conditions noted are these: purified enzyme. The source says:
(§1) Substrate binding was screened by measuring an apparent composite Km (see Example 2) for luciferin and ATP. […] The Km for luciferin rose while the Km for ATP declined (Table 3). The reason for this change is unknown, although it can be speculated that more efficient release of oxyluciferin or luciferin inhibitors could lead to more rapid enzyme turnover.
(§2) Protein purification: Four mutants that are described herein (Luc[T249M], Luc49-7C6, Luc78-0B10, and Luc90-1B5) were purified using a previously published procedure (Hastings et al., 1996).

Series [3] in a line: Thermostability (half-life, retained activity) of luciferases incubated in aqueous solution at different temperatures. The series is classed as physicochemical. The conditions noted are these: for loss in activity: aqueous solution.
Description: As defined herein, a “thermostable” enzyme, e.g., a luciferase, or an enzyme which has “thermostability”, is an enzyme which under certain conditions, e.g., at certain temperature, in aqueous solution and/or for certain periods of time, has an increased retention of activity relative to a reference enzyme. For example, for a thermostable luciferase, a reference luciferase may be native wild-type luciferase or recombinant wild-type luciferase. Preferably, for beetle luciferases, the activity is luminescence under conditions of saturation with luciferin and ATP. One measure of thermostability of an enzyme is the half-life of the enzyme in an aqueous solution (the time over which 50% of the activity is lost) at a stated temperature.
as §2
[…] Enzyme stability was determined from diluted proteins incubated at different temperatures, and aliquots were removed at different time points. A linear regression of the natural log of the luminescence and time was calculated. Half-life was calculated as the 1n(0.5)/slope of the regression.

A short description of series [4]: Michaelis-Menten constant for ATP of purified mutants. The series is classed as biochemical. The conditions noted are these: purified enzyme.
Description: as §1, §2

Series [5] can be described thus: Retention of luminescence activity at pH 4.5 and 48° C. The series is classed as physicochemical. Conditions: pH 4.5 and 48° C. (FIG. 54B). The method, then: Three populations of random mutants were produced using clone Luc90-1B5 as a template. These three populations were screened on the robot as experiments 114, 115, and 117. […] These screening conditions were biased to select clones that have increased retention of luminescence activity over time at pH 4.5 at 48° C. and increased luminescence activity when assayed at pH 7.1 with 10 μM ATP. Seventeen clones from experiment 114, seven clones from experiment 115, and ten clones from experiment 116 were shuffled together using sPCR and selected mutants from this screen were run on the robot as experiment 117. Eighteen clones were selected from experiment 117.

B1: Luc90-1B5: mutant luciferase, SEQ ID NO:24 (protein)
chain: MADKNILYGPEPFYPLEDGTAGEQMFDALSRYADIPGCIALTNAHTKENVLYEEFLKLSCRLAESFKKYGLKQNDTIAVCSENGLQFFLPVIASLYLGIIVAPVNDKYIERELIHSLGIVKPRIVFCSKNTFQKVLNVKSKLKSIETIIILDLNEDLGGYQCLNNFISQNSDSNLDVKKFKPYSFNRDDQVALIMFSSGTTGLPKGVMLTHKNIVARFSLAKDPTFGNAINPTTAILTVIPFHHGFGMMTTLGYFTCGFRVVLMHTFEEKLFLQSLQDYKVESTLLVPTLMAFLAKSALVEKYDLSHLKEIASGGAPLSKEIGEMVKKRFKLNFVRQGYGLTETTSAVLITPKGDAKPGSTGKIVPFHAVKVVDPTTGKILGPNEPGELYFKGPMIMKGYYNNEEATKAIIDNDGWLRSGDIAYYDNDGHFYIVDRLKSLIKYKGYQVAPAEIEGILLQHPYIVDAGVTGIPDEAAGELPAAGVVVQTGKYLNEQIVQDYVASQVSTAKWLRGGVKFLDEIPKGSTGKIDRKVLRQMFEKHTNG
modifications: Mutant luciferase
What is called Km is the concentration of substrate that gives half-maximal velocity. As usually defined, the half-life is how long it takes for the measured level to halve. A low value points to rapid decline. Take B1: in series [1], the “Signal stability (S)” value amounted to 1.0011. Besides, the Km in series [2] worked out at 2.2 µM; in series [4] it was 3 µM. Also, in series [3], the “increased thermostability compared to LucPpe2 [T249M]” value is “about 35 °C”. Also, in series [3] (22° C. over several weeks, pH 6.5 (FIG. 16B)), the stability entry is reported as “stable”. Further, the activity loss result in series [3] (65° C. over several hours, citrate buffer at pH 6.5 (FIG. 16A)) is reported as “very little activity loss”. Also, the half-life in series [3] (65° C., same buffer conditions as Table 2 (FIG. 16A)) is 27 h; in series [5], “about 3 minutes”. For the same molecule, the activity maintained in series [3] (after 120 hours (5 days) at 50° C., 25 mol/L citrate pH 6.5, 150 mmol/L NaCl, 1 mg/mL BSA, 0.1 mmol/L EDTA, 5% glycerol) was found to be 75%. The loss in activity in series [3] (2 hours at 50° C.), in series [3] (5 hours at 65° C.) and in series [3] (over 6 weeks at 22° C.) was 5% in each case.

Values taken from patent US8030017B2, “Thermostable luciferases and methods of production” (Promega Corporation, priority 1997, dated 2011).
